Source: patent US20020123091A1

Columns and labels:
[1] = molecular target: human kallikrein (Haematologic Technologies) (human) (UniProt P03952); assay: cell-based or functional assay
[2] = molecular target: human kallikrein (Haematologic Technologies) (human) (UniProt P03952); assay: apparent Ki (K1*) calculated from the IC50 as K1*=IC50/(1+(S/KM)), assuming competitive inhibition; chromogenic substrate S2305 1.8 mM, kallikrein 1.25 nM

Chain of human kallikrein (Haematologic Technologies) (human) (P03952 20-638 limits assumed): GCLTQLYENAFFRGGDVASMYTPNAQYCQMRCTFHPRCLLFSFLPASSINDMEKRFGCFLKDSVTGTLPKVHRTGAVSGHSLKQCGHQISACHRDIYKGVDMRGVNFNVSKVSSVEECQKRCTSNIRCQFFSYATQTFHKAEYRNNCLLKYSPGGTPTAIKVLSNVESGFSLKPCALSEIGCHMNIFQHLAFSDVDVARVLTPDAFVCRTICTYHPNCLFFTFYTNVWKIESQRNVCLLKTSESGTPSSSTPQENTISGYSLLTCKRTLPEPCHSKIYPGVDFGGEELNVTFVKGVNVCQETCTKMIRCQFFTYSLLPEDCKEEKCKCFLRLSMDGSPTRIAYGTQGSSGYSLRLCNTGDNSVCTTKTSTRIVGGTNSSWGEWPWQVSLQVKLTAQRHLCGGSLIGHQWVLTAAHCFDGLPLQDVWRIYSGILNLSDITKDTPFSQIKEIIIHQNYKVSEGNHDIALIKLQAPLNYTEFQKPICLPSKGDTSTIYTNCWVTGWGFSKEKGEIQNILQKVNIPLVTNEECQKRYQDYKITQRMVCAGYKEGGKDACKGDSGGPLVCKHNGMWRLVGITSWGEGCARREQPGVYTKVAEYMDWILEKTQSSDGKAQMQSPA

Q: “PRO256 polypeptide (from UniProt O43278 36-465)” was tested. Which inhibition of kallikrein enzymatic activity toward chromogenic substrate S2305 (IC50) [1] did it give?
A: 104 nM

Q: And the Ki [2]?
A: 37 nM
